*1 amine or outer side, *2 acyl side, *3 side chain or, on linkers, in order; H or OH if unused. Side-chain parts run from the residue outwards. The star is where a group is joined. C18 diacid = O=C(O)CCCCCCCCCCCCCCCCC(=O)*; γGlu = O=C(O)[C@H](CCC(=O)[*:2])N[*:1]; Isovaleryl = CC(C)CC(=O)*; AEEA = NCCOCCOCC(=O)O
T1: human neuropeptide Y2 receptor (human, UniProt P49146 1-381)
T1 construct: whole, on cells; also called hNPY2 receptor; hNPY2-R
T1 sequence (looked up): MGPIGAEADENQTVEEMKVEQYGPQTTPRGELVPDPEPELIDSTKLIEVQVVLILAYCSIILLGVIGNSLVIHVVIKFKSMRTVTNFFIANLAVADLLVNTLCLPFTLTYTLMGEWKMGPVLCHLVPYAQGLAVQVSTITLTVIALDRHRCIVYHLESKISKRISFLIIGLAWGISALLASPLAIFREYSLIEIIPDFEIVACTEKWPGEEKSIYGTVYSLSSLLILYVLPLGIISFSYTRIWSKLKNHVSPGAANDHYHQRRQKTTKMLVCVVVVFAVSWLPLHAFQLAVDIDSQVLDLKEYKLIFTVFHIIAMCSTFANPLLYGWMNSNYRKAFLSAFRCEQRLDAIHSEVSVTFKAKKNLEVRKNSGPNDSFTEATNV


Biological target: T1, human neuropeptide Y2 receptor
Assay: radioligand competition (125I-PYY(1-36)), hNPY2R membranes
Outline: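 Commercial human Y2 receptor membranes (0.5 μg protein/well) were incubated with peptide for 2 h at room temperature in 50 mM HEPES, 5 mM MgCl₂, 1 mM CaCl₂, pH 7.4, with 0.2% ovalbumin. Bound radioligand was separated on PEI-soaked GF/C filters and counted by scintillation, and IC₅₀ came from nonlinear sigmoidal regression.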

Binder	Ki [nM]
Isovaleryl-APAK([AEEA-AEEA-γGlu-C18 diacid])PPEDASPEELQRYYVELRHYYNWLTRQRY-NH2 (SMILES CC(C)CC(=O)N[C@@H](C)C(=O)N1CCC[C@H]1C(=O)N[C@@H](C)C(=O)N[C@@H](CCCCNC(=O)COCCOCCNC(=O)COCCOCCNC(=O)CC[C@H](NC(=O)CCCCCCCCCCCCCCCCC(=O)O)C(=O)O)C(=O)N1CCC[C@H]1C(=O)N1CCC[C@H]1C(=O)N[C@@H](CCC(=O)O)C(=O)N[C@@H](CC(=O)O)C(=O)N[C@@H](C)C(=O)N[C@@H](CO)C(=O)N1CCC[C@H]1C(=O)N[C@@H](CCC(=O)O)C(=O)N[C@@H](CCC(=O)O)C(=O)N[C@@H](CC(C)C)C(=O)N[C@@H](CCC(N)=O)C(=O)N[C@@H](CCCNC(=N)N)C(=O)N[C@@H](Cc1ccc(O)cc1)C(=O)N[C@@H](Cc1ccc(O)cc1)C(=O)N[C@H](C(=O)N[C@@H](CCC(=O)O)C(=O)N[C@@H](CC(C)C)C(=O)N[C@@H](CCCNC(=N)N)C(=O)N[C@@H](Cc1c[nH]cn1)C(=O)N[C@@H](Cc1ccc(O)cc1)C(=O)N[C@@H](Cc1ccc(O)cc1)C(=O)N[C@@H](CC(N)=O)C(=O)N[C@@H](Cc1c[nH]c2ccccc12)C(=O)N[C@@H](CC(C)C)C(=O)N[C@H](C(=O)N[C@@H](CCCNC(=N)N)C(=O)N[C@@H](CCC(N)=O)C(=O)N[C@@H](CCCNC(=N)N)C(=O)N[C@@H](Cc1ccc(O)cc1)C(N)=O)[C@@H](C)O)C(C)C) [Compound 232]	0.81
Isovaleryl-APAK([AEEA-AEEA-γGlu-C18 diacid])PEEEASPEELQRYYVSLRHYYNWLTRQRY-NH2 (SMILES CC(C)CC(=O)N[C@@H](C)C(=O)N1CCC[C@H]1C(=O)N[C@@H](C)C(=O)N[C@@H](CCCCNC(=O)COCCOCCNC(=O)COCCOCCNC(=O)CC[C@H](NC(=O)CCCCCCCCCCCCCCCCC(=O)O)C(=O)O)C(=O)N1CCC[C@H]1C(=O)N[C@@H](CCC(=O)O)C(=O)N[C@@H](CCC(=O)O)C(=O)N[C@@H](CCC(=O)O)C(=O)N[C@@H](C)C(=O)N[C@@H](CO)C(=O)N1CCC[C@H]1C(=O)N[C@@H](CCC(=O)O)C(=O)N[C@@H](CCC(=O)O)C(=O)N[C@@H](CC(C)C)C(=O)N[C@@H](CCC(N)=O)C(=O)N[C@@H](CCCNC(=N)N)C(=O)N[C@@H](Cc1ccc(O)cc1)C(=O)N[C@@H](Cc1ccc(O)cc1)C(=O)N[C@H](C(=O)N[C@@H](CO)C(=O)N[C@@H](CC(C)C)C(=O)N[C@@H](CCCNC(=N)N)C(=O)N[C@@H](Cc1c[nH]cn1)C(=O)N[C@@H](Cc1ccc(O)cc1)C(=O)N[C@@H](Cc1ccc(O)cc1)C(=O)N[C@@H](CC(N)=O)C(=O)N[C@@H](Cc1c[nH]c2ccccc12)C(=O)N[C@@H](CC(C)C)C(=O)N[C@H](C(=O)N[C@@H](CCCNC(=N)N)C(=O)N[C@@H](CCC(N)=O)C(=O)N[C@@H](CCCNC(=N)N)C(=O)N[C@@H](Cc1ccc(O)cc1)C(N)=O)[C@@H](C)O)C(C)C) [Compound 234]	1.95
Isovaleryl-APEK([AEEA-AEEA-γGlu-C18 diacid])PEEEASPEEIQRYYVSLRHYYNWLTRQRY-NH2 (SMILES CC[C@H](C)[C@H](NC(=O)[C@H](CCC(=O)O)NC(=O)[C@H](CCC(=O)O)NC(=O)[C@@H]1CCCN1C(=O)[C@H](CO)NC(=O)[C@H](C)NC(=O)[C@H](CCC(=O)O)NC(=O)[C@H](CCC(=O)O)NC(=O)[C@H](CCC(=O)O)NC(=O)[C@@H]1CCCN1C(=O)[C@H](CCCCNC(=O)COCCOCCNC(=O)COCCOCCNC(=O)CC[C@H](NC(=O)CCCCCCCCCCCCCCCCC(=O)O)C(=O)O)NC(=O)[C@H](CCC(=O)O)NC(=O)[C@@H]1CCCN1C(=O)[C@H](C)NC(=O)CC(C)C)C(=O)N[C@@H](CCC(N)=O)C(=O)N[C@@H](CCCNC(=N)N)C(=O)N[C@@H](Cc1ccc(O)cc1)C(=O)N[C@@H](Cc1ccc(O)cc1)C(=O)N[C@H](C(=O)N[C@@H](CO)C(=O)N[C@@H](CC(C)C)C(=O)N[C@@H](CCCNC(=N)N)C(=O)N[C@@H](Cc1c[nH]cn1)C(=O)N[C@@H](Cc1ccc(O)cc1)C(=O)N[C@@H](Cc1ccc(O)cc1)C(=O)N[C@@H](CC(N)=O)C(=O)N[C@@H](Cc1c[nH]c2ccccc12)C(=O)N[C@@H](CC(C)C)C(=O)N[C@H](C(=O)N[C@@H](CCCNC(=N)N)C(=O)N[C@@H](CCC(N)=O)C(=O)N[C@@H](CCCNC(=N)N)C(=O)N[C@@H](Cc1ccc(O)cc1)C(N)=O)[C@@H](C)O)C(C)C) [Compound 241]	2.95
Isovaleryl-APEK([AEEA-AEEA-γGlu-C18 diacid])TEEEASPEELQRYYVSLRHYYNWLTRQRY-NH2 (SMILES CC(C)CC(=O)N[C@@H](C)C(=O)N1CCC[C@H]1C(=O)N[C@@H](CCC(=O)O)C(=O)N[C@@H](CCCCNC(=O)COCCOCCNC(=O)COCCOCCNC(=O)CC[C@H](NC(=O)CCCCCCCCCCCCCCCCC(=O)O)C(=O)O)C(=O)N[C@H](C(=O)N[C@@H](CCC(=O)O)C(=O)N[C@@H](CCC(=O)O)C(=O)N[C@@H](CCC(=O)O)C(=O)N[C@@H](C)C(=O)N[C@@H](CO)C(=O)N1CCC[C@H]1C(=O)N[C@@H](CCC(=O)O)C(=O)N[C@@H](CCC(=O)O)C(=O)N[C@@H](CC(C)C)C(=O)N[C@@H](CCC(N)=O)C(=O)N[C@@H](CCCNC(=N)N)C(=O)N[C@@H](Cc1ccc(O)cc1)C(=O)N[C@@H](Cc1ccc(O)cc1)C(=O)N[C@H](C(=O)N[C@@H](CO)C(=O)N[C@@H](CC(C)C)C(=O)N[C@@H](CCCNC(=N)N)C(=O)N[C@@H](Cc1c[nH]cn1)C(=O)N[C@@H](Cc1ccc(O)cc1)C(=O)N[C@@H](Cc1ccc(O)cc1)C(=O)N[C@@H](CC(N)=O)C(=O)N[C@@H](Cc1c[nH]c2ccccc12)C(=O)N[C@@H](CC(C)C)C(=O)N[C@H](C(=O)N[C@@H](CCCNC(=N)N)C(=O)N[C@@H](CCC(N)=O)C(=O)N[C@@H](CCCNC(=N)N)C(=O)N[C@@H](Cc1ccc(O)cc1)C(N)=O)[C@@H](C)O)C(C)C)[C@@H](C)O) [Compound 238]	25.1
Isovaleryl-APEK([AEEA-AEEA-γGlu-C18 diacid])PEADASAEELQRYYVSLRHYYNWLTRQRY-NH2 (SMILES CC(C)CC(=O)N[C@@H](C)C(=O)N1CCC[C@H]1C(=O)N[C@@H](CCC(=O)O)C(=O)N[C@@H](CCCCNC(=O)COCCOCCNC(=O)COCCOCCNC(=O)CC[C@H](NC(=O)CCCCCCCCCCCCCCCCC(=O)O)C(=O)O)C(=O)N1CCC[C@H]1C(=O)N[C@@H](CCC(=O)O)C(=O)N[C@@H](C)C(=O)N[C@@H](CC(=O)O)C(=O)N[C@@H](C)C(=O)N[C@@H](CO)C(=O)N[C@@H](C)C(=O)N[C@@H](CCC(=O)O)C(=O)N[C@@H](CCC(=O)O)C(=O)N[C@@H](CC(C)C)C(=O)N[C@@H](CCC(N)=O)C(=O)N[C@@H](CCCNC(=N)N)C(=O)N[C@@H](Cc1ccc(O)cc1)C(=O)N[C@@H](Cc1ccc(O)cc1)C(=O)N[C@H](C(=O)N[C@@H](CO)C(=O)N[C@@H](CC(C)C)C(=O)N[C@@H](CCCNC(=N)N)C(=O)N[C@@H](Cc1c[nH]cn1)C(=O)N[C@@H](Cc1ccc(O)cc1)C(=O)N[C@@H](Cc1ccc(O)cc1)C(=O)N[C@@H](CC(N)=O)C(=O)N[C@@H](Cc1c[nH]c2ccccc12)C(=O)N[C@@H](CC(C)C)C(=O)N[C@H](C(=O)N[C@@H](CCCNC(=N)N)C(=O)N[C@@H](CCC(N)=O)C(=O)N[C@@H](CCCNC(=N)N)C(=O)N[C@@H](Cc1ccc(O)cc1)C(N)=O)[C@@H](C)O)C(C)C) [Compound 242]	0.81
Isovaleryl-APEK([AEEA-AEEA-γGlu-C18 diacid])PEEEASPEELQQYYVSLRHYYNWLTRQRY-NH2 (SMILES CC(C)CC(=O)N[C@@H](C)C(=O)N1CCC[C@H]1C(=O)N[C@@H](CCC(=O)O)C(=O)N[C@@H](CCCCNC(=O)COCCOCCNC(=O)COCCOCCNC(=O)CC[C@H](NC(=O)CCCCCCCCCCCCCCCCC(=O)O)C(=O)O)C(=O)N1CCC[C@H]1C(=O)N[C@@H](CCC(=O)O)C(=O)N[C@@H](CCC(=O)O)C(=O)N[C@@H](CCC(=O)O)C(=O)N[C@@H](C)C(=O)N[C@@H](CO)C(=O)N1CCC[C@H]1C(=O)N[C@@H](CCC(=O)O)C(=O)N[C@@H](CCC(=O)O)C(=O)N[C@@H](CC(C)C)C(=O)N[C@@H](CCC(N)=O)C(=O)N[C@@H](CCC(N)=O)C(=O)N[C@@H](Cc1ccc(O)cc1)C(=O)N[C@@H](Cc1ccc(O)cc1)C(=O)N[C@H](C(=O)N[C@@H](CO)C(=O)N[C@@H](CC(C)C)C(=O)N[C@@H](CCCNC(=N)N)C(=O)N[C@@H](Cc1c[nH]cn1)C(=O)N[C@@H](Cc1ccc(O)cc1)C(=O)N[C@@H](Cc1ccc(O)cc1)C(=O)N[C@@H](CC(N)=O)C(=O)N[C@@H](Cc1c[nH]c2ccccc12)C(=O)N[C@@H](CC(C)C)C(=O)N[C@H](C(=O)N[C@@H](CCCNC(=N)N)C(=O)N[C@@H](CCC(N)=O)C(=O)N[C@@H](CCCNC(=N)N)C(=O)N[C@@H](Cc1ccc(O)cc1)C(N)=O)[C@@H](C)O)C(C)C) [Compound 243]	2.07

From patent US20210139548A1 (published 2021)
